Holding throughout (assay): purified protein
Substrate in data set [1]: C[C@H](N)C(=O)O
The settings on record: amino acid activation, pH 7.5.

Substrate in data set [2]: N[C@@H](CO)C(=O)O
The settings on record: amino acid activation.

Substrate in data set [3]: C[C@@H](N)C(=O)O
The settings on record: amino acid activation, pH 7.5.

Substrate in data set [4]: NCC(=O)O
In kind it is biochemical, Thermus thermophilus. The following applies: amino acid activation, 4 mM ATP, 1 mM PPi, 10 mM MgCl2, pH 7.5, 60 °C.

Substrate in data set [5]: N[C@H](Cc1ccc(O)cc1)C(=O)O
The format is biochemical, Thermus thermophilus. The following applies: amino acid activation, 4 mM ATP, 1 mM PPi, 10 mM MgCl2, pH 7.5, 60 °C.

Substrate in data set [6]: N[C@@H](Cc1ccc(O)cc1)C(=O)O
In kind it is biochemical, Thermus thermophilus. The settings on record: amino acid activation, 4 mM ATP, 1 mM PPi, 10 mM MgCl2, pH 7.5, 60 °C.

The mark [7] stands for this setting: 4 mM ATP, 1 mM PPi, 10 mM MgCl2, pH 7.5, 60 °C, 60.0 °C.
The mark [8] stands for this setting: 4 mM ATP, 1 mM PPi, 10 mM MgCl2, pH 7.5, 60 °C, pH 7.5, 60.0 °C.
Where [9] appears, read: editing-deficient mutant, 37.0 °C.

B1: AlaRSTT (Thermus thermophilus alanyl-tRNA-synthetase) (Thermus thermophilus HB27) (protein)
chain: MRTAEIREKFLSFFEGKGHLRLPSFSLIPEDDPSLLFTSAGMAPLKPYFLGAKPIFGGREWRRVTTCQECLRVGDIENVGRTSRHNTYFEMLGNFSFGDYFKKEAILWAWEFLTEHLRLDPGRLWVTVFEDDDEAYEIWRDLVGVPEERIGRFGEDENYWPGGAITHGPNGPSGPCSEIFYDRGPAYGTPDETGPNTGSGDRFVEIWNLVFTQYDRQGPIPGPGILKPLPQKNIDTGMGLYRVAAILQDVEDFYRTDTFFPIIQEVARMSGRPYEGKTSVSHRVIADHVRAVVAALSDGATFSNTGRGYVIRRLLRRALRHGYLLGLSDPFLHRLAPLVAELLGDFYPEMRENLPAVEKQIRLEEERFLETLEGGLKRLDALLSGLKPGEVLPGKEAFRLYDTYGFPLDLTVEIAAERGYGVDTEGFQKAMEEQQSRSRAAMAFEREIFKKGAQVLEELYAERGATEFLGYNALEAEAEVLALLAGDQSLLEAGPGTEVQVVLDKTPFYAEGGGQIGDFGLLEWPGGRARVETTRKTERGIFLHKARVEEGVLRVGERVRAVVDPRRRDTERNHTATHLLHAALRAVLGPHVRQAGSLVAPDRLRFDFTHPEPLKPEELERVELLVNRWIMADFPVTWRYMPLEEARKEGAMALFGEKYGEVVRVVRVEGSPLEGLESKELCGGCHVRRTGEIGAFLIRSEEAVSAGVRRIEAVTGEEAIRFARGSLNRLKALAERLEVGEAALEERLEKLLAELKEKEREVESLKARLVQAALGGGGGASLEEKGGLRWTVAELPGLDAKALRQAADDLVARGADVALVLSGGQAVLKLSPKAQGMGLEAGALFRALAEKAGGRGGGKGALAQGGGLDPRKAREALPGLLP
notes: His-tagged, pET28b, expressed in E. coli BL21(DE3)Star; wild type
As to B1, the Km (usually the substrate concentration at which the rate is half of its maximum) in “purified protein [1]” (setting [7]) was determined as 139 ± 12 µM; in “purified protein [2]” (setting [8]), 10000 ± 2000 µM; in the data set “purified protein [3]” (setting [7]), 2190 ± 500 µM; in the data set “purified protein [4]” it was 22000 ± 8000 µM. In addition, the catalytic constant (kcat) (commonly the number of substrate molecules converted per active site and unit of time at saturation) in the data set “purified protein [1]” (setting [7]) was determined as 7.88 s⁻¹; in “purified protein [2]” (setting [8]), 2.3 s⁻¹; in “purified protein [3]” (setting [7]) it was 0.21 s⁻¹; in “purified protein [4]”, 6.5 ± 1.6 s⁻¹. Besides, the catalytic efficiency (kcat/Km) (in general, the second-order rate constant that governs catalysis at low substrate concentration) in “purified protein [1]” (setting [7]) amounted to 56000 M⁻¹ s⁻¹; in the data set “purified protein [2]” (setting [8]), 236 M⁻¹ s⁻¹; in the data set “purified protein [3]” (setting [7]), 120 M⁻¹ s⁻¹; in the data set “purified protein [4]” it was 290 M⁻¹ s⁻¹.

B2: E. coli C666A AlaRS (Escherichia coli K-12; C666A) (protein)
chain: SKSTAEIRQAFLDFFHSKGHQVVASSSLVPHNDPTLLFTNAGMNQFKDVFLGLDKRNYSRATTSQRCVRAGGKHNDLENVGYTARHHTFFEMLGNFSFGDYFKHDAIQFAWELLTSEKWFALPKERLWVTVYESDDEAYEIWEKEVGIPRERIIRIGDNKGAPYASDNFWQMGDTGPCGPCTEIFYDHGDHIWGGPPGSPEEDGDRYIEIWNIVFMQFNRQADGTMEPLPKPSVDTGMGLERIAAVLQHVNSNYDIDLFRTLIQAVAKVTGATDLSNKSLRVIADHIRSCAFLIADGVMPSNENRGYVLRRIIRRAVRHGNMLGAKETFFYKLVGPLIDVMGSAGEDLKRQQAQVEQVLKTEEEQFARTLERGLALLDEELAKLSGDTLDGETAFRLYDTYGFPVDLTADVCRERNIKVDEAGFEAAMEEQRRRAREASGFGADYNAMIRVDSASEFKGYDHLELNGKVTALFVDGKAVDAINAGQEAVVVLDQTPFYAESGGQVGDKGELKGANFSFAVEDTQKYGQAIGHIGKLAAGSLKVGDAVQADVDEARRARIRLNHSATHLMHAALRQVLGTHVSQKGSLVNDKVLRFDFSHNEAMKPEEIRAVEDLVNTQIRRNLPIETNIMDLEAAKAKGAMALFGEKYDERVRVLSMGDFSTELAGGTHASRTGDIGLFRIISESGTAAGVRRIEAVTGEGAIATVHADSDRLSEVAHLLKGDSNNLADKVRSVLERTRQLEKELQQLKEQAAAQESANLSSKAIDVNGVKLLVSELSGVEPKMLRTMVDDLKNQLGSTIIVLATVVEGKVSLIAGVSKDVTDRVKAGELIGMVAQQVGGKGGGRPDMAQAGGTDAAALPAALASVKGWVSAKLQ
Consider B2, for which, in the data set “purified protein [1]” (setting [9]), the Km amounted to 304 ± 43 µM, the catalytic constant (kcat) was found to be 0.18 s⁻¹ and the kcat/Km came to 600 M⁻¹ s⁻¹. Further, in “purified protein [2]” (editing-deficient mutant), the Km came out at 27000 ± 6000 µM and the kcat came out at 0.147 ± 0.04 s⁻¹. In “purified protein [3]” (setting [9]), the Km is 60000 ± 20000 µM, the turnover number (kcat) turned out to be 0.1 s⁻¹ and the kcat/Km amounted to 1.8 M⁻¹ s⁻¹.

B3: TyrRSTT (T. thermophilus tyrosyl-tRNA-synthetase) (Thermus thermophilus HB27) (protein)
chain: MAGTGHTPEEALALLKRGAEEIVPEEELLAKLKEGRPLTVKLGADPTRPDLHLGHAVVLRKMRQFQELGHKVVLIIGDFTGMIGDPSGRSKTRPPLTLEETRENAKTYVAQAGKILRQEPHLFELRYNSEWLEGLTFKEVVRLTSLMTVAQMLEREDFKKRYEAGIPISLHELLYPFAQAYDSVAIRADVEMGGTDQRFNLLVGREVQRAYGQSPQVCFLMPLLVGLDGREKMSKSLDNYIGLTEPPEAMFKKLMRVPDPLLPSYFRLLTDLEEEEIEALLKAGPVPAHRVLARLLTAAYALPQIPPRIDRAFYESLGYAWEAFGRDKEAGPEEVRRAEARYDEVAKGGIPEEIPEVTIPASELKEGRIWVARLFTLAGLTPSNAEARRLIQNRGLRLDGEVLTDPMLQVDLSRPRILQRGKDRFVRVRLSD
notes: wild type
In the case of B3, in “purified protein [5]”, the Km came to 27.6 ± 7.5 µM, the catalytic constant (kcat) is 2.2 ± 0.65 s⁻¹ and the specificity constant (kcat/Km) turned out to be 80000 M⁻¹ s⁻¹. Further, in “purified protein [6]”, the Km came out at 9 ± 2 µM, the catalytic constant (kcat) stood at 17.4 ± 3.9 s⁻¹ and the kcat/Km is 1.93e+06 M⁻¹ s⁻¹.
